Legend:
human CD19 = molecular target: T1, human CD19 (Homo sapiens, UniProt P15391); test: Binding of TBMs to 300.19 cells overexpressing human CD19 (Example 11); details: flow cytometry, R variants
T1 construct: expressed in transfected cells; host or cells: mouse cell line 300.19
T1 sequence (P15391 20-556): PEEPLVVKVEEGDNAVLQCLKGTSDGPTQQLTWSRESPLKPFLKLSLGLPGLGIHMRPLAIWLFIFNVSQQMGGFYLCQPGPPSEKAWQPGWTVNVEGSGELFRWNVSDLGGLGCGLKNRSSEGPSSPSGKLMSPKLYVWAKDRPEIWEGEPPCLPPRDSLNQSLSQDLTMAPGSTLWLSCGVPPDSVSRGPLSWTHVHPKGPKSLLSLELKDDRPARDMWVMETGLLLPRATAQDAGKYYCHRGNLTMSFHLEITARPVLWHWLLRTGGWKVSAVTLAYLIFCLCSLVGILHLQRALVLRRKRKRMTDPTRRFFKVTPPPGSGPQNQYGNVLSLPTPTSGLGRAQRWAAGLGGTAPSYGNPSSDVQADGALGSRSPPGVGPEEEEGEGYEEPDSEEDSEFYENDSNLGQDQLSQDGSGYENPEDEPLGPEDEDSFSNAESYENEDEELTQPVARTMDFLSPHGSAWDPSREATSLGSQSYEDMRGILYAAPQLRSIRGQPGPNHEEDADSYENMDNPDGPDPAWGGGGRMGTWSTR
Procedure: (§1) The mouse cell line 300.19 was engineered to overexpress either human CD19 or cyno CD19. Cells were cultured in RPMI medium (Invitrogen #11875-093) with 10% FBS and 2-mercaptoethanol. Cells were harvested and resuspended in FACS buffer (PBS containing 1% FBS). 50,000 cells per well were plated in a V-bottom 96-well plate. Each cell line was incubated with serial dilutions of TBMs of Example 1A (i.e., R variants) for one hour on ice. Cells were centrifuged for 4 min at 400×g and washed with FACS buffer. This was repeated twice, and then the cells were incubated with Alexa-647 labeled anti-human Fc secondary antibody (Jackson Immuno #109-605-098) for 30 min on ice. The cells were washed twice, then resuspended in 100 μL of FACS buffer. FACS data was collected on a Beckman Coulter Cytoflex and analysis was performed using CytExpert v2.3.

cyno CD19 = test: Binding of TBMs to 300.19 cells overexpressing cyno CD19 (Example 11); details: flow cytometry, R variants
Procedure: as §1

[1] = Aggregation propensity (% HMW) by analytical SEC of IgG1 anti-CD3 antibody and Fc variants (Example 35); type: physicochemical; details: PBS pH 7.4, anti-CD3 antibodies
Procedure: Size exclusion chromatography measurements were performed to evaluate the aggregation propensity (% HMW) of IgG1 antibody and Fc modified derivatives. The produced and purified anti CD3 antibodies were applied to an analytical size exclusion chromatography column (SEC 200, GE Healthcare), equilibrated with PBS buffer pH 7.4.

human FcγR1A = human FcγR1A (Homo sapiens, UniProt P12314); test: SPR binding of Fc modified anti-CD3 IgG1 antibodies (Example 34); details: anti-CD3 IgG1 antibody immobilized
human FcγR1A, sequence (P12314 16-374): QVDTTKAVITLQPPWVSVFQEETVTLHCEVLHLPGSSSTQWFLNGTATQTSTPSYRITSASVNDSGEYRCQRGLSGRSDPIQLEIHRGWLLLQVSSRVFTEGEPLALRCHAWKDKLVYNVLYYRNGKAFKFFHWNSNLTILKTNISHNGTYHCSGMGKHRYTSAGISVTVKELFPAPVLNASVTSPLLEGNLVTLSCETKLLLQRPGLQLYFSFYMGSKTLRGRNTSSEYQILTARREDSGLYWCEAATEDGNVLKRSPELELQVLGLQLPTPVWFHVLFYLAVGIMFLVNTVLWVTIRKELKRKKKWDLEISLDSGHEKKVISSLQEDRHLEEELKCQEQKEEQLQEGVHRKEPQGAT
Procedure: Surface plasmon resonance (SPR) experiments were performed to analyze the interaction of human activating receptors FcγR1A, FcγR3A (V158) and human C1q with IgG1 WT and antibody-Fc variants. Binding kinetics and their relative binding affinities were explored. The binding affinity is an important characteristic of an interaction between an antibody and an antigen. The equilibrium dissociation constant (KD) defines how strong the interaction is and therefore how much antibody-antigen complex is formed at equilibrium.
The knowledge of the antibody characteristics is not only essential during selection of the best therapeutic antibody candidate, but also important to understand the in vivo behavior and potentially predict cellular immune responses. […] Binding to human C1q was evaluated. […] SPR measurements were measured on a Biacore T200 (GE-Healthcare Life Sciences) controlled by Biacore T200 control software version 2.0.1. […]
The antibodies were covalently immobilized on a CM5 sensor chip whereas Fc gamma receptors or human C1q served as analytes in solution (FIG. 38). […] Zero concentration samples (blank runs) were measured for both methods to allow double-referencing during data evaluation.
Data were evaluated using the Biacore T200 evaluation software. […] In addition, the maximum response reached during the experiment was monitored. […]

[2] = Differential scanning calorimetry, melting temperature of Fc modified anti-CD3 antibodies (Example 35); type: physicochemical; details: DSC, 1 mg/ml in PBS pH 7.4, anti-CD3 IgG1 Fc variants
Procedure: Calorimetric measurements were carried out on a differential scanning micro calorimeter (Nano DSC, TA instruments). The cell volume was 0.5 ml and the heating rate was 1° C./min. All proteins were used at a concentration of 1 mg/m in PBS (pH 7.4). The molar heat capacity of each protein was estimated by comparison with duplicate samples containing identical buffer from which the protein had been omitted. The partial molar heat capacities and melting curves were analyzed using standard procedure. Thermograms were baseline corrected and concentration normalized.

B1: NEG258: CD19 antibody/binder; VH SEQ ID NO:13, VL SEQ ID NO:26 (antibody, V domains shown)
VH: QVQLVQSGAEVKKPGASVKVSCKASGYTFTTYWIQWVRQAPGQRLEWMGAVYPGDADTRYTQKFQGRVTLTADRSASTAYMELSSLRSEDTAVYYCGRDAGLEYYALDYWGQGTLVTVSS
VL: EIVMTQSPATLSVSPGERATLSCRASQDVGTAVAWYQQKPGQAPRLLIYWASTRHTGIPARFSGSGSGTEFTLTISSLQSEDFAVYFCQQYANFPLYTFGQGTKLEIK
binding to cells overexpressing human CD19 (human CD19): greater affinity for both human CD19 and cyno CD19 | binding to cells overexpressing cyno CD19 (cyno CD19): greater affinity for both human CD19 and cyno CD19

B2: DAPASK-IgG1: anti-CD3 IgG1 with D265A/P329A/S267K (antibody)
heavy: EVQLVESGGGLVQPGGSLKLSCAASGFTFNTYAMNWVRQASGKGLEWVGRIRSKYNNYATYYADSVKDRFTISRDDSKSTLYLQMNSLKTEDTAVYYCVRHGNFGNSYVSWFAYWGQGTLVTVSSASTKGPSVFPLAPSSKSTSGGTAALGCLVKDYFPEPVTVSWNSGALTSGVHTFPAVLQSSGLYSLSSVVTVPSSSLGTQTYICNVNHKPSNTKVDKRVEPKSCDKTHTCPPCPAPELLGGPSVFLFPPKPKDTLMISRTPEVTCVVVAVKHEDPEVKFNWYVDGVEVHNAKTKPREEQYNSTYRVVSVLTVLHQDWLNGKEYKCKVSNKALAAPIEKTISKAKGQPREPQVYTLPPSRDELTKNQVSLTCLVKGFYPSDIAVEWESNGQPENNYKTTPPVLDSDGSFFLYSKLTVDKSRWQQGNVFSCSVMHEALHNHYTQKSLSLSPGK
light: QAVVTQEPSLTVSPGGTVTLTCRSSTGAVTTSNYANWVQQKPGQAPRGLIGGTNKRAPWTPARFSGSLLGDKAALTLSGAQPEDEAEYFCALWYSNLWVFGGGTKLTVLGQPKAAPSVTLFPPSSEELQANKATLVCLISDFYPGAVTVAWKADSSPVKAGVETTTPSKQSNNKYAASSYLSLTPEQWKSHRSYSCQVTHEGSTVEKTVAPTECS
(%) higher molecular weight [1]: 3.6% | Maximum response at 100 nM hFcgammaRIA (RU) (human FcγR1A): 13 RU | Melting temperature (Tm) of CH2 domain [2]: 65 °C
